{
  "source": "the supplement of paper PMC6755084",
  "parents": {"B1": {"name": "F1*; the commonest letter at each place (parent)", "chain": "GAGACCGCAACTGAAAAGTTGTTATCACTTGTCGTAAGACACTTTGGATGGGTTGAAGTTCTGCACGTAGAAGCAAAAGGC"}},
  "data": [
    {"variants_of": "B1", "experiment": "fraction ligated after 30 min (ligated reads / total reads); higher = more ligase activity", "conditions": "with F1*sub RNA substrate (template-directed ligation), 42 °C", "in_short": "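Ligase ribozyme variants were made from oligo-pool templates by PCR amplification, T7 transcription and gel purification. After gel separation, ligated and unligated bands were reverse transcribed with barcoded primers and sequenced on a MiSeq, with core bases filtered at quality ≥20. The fraction ligated for each variant was the number of ligated reads divided by total reads.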", "values": [
      {"variant": "GAGACCGCAACTGAAAAGTTGTTATCACTTGTCGTTAGACACTTTGGATGGGTTAAAGTTCTGCACGTAGAAGCAAAAGGC", "note": "[A36T G55A]", "fraction ligated": 0.842},
      {"variant": "GAGACCGCAACTGAAAAGTTGTTATCACTTGTCGTTAGACACTTTGGATGGGTTGATGTTCTGCACGTAGAAGCAAAAGGC", "note": "[A36T A57T]", "fraction ligated": 0.824},
      {"variant": "GAGACCGCAACTGAAAAGTTGTTATCACTTGTCGTTAGACACTTTGGATGGGTTGAGGTTCTGCACGTAGAAGCAAAAGGC", "note": "[A36T A57G]", "fraction ligated": 0.841},
      {"variant": "GAGACCGCAACTGAAAAGTTGTTATCACTTGTCGTTAGACACTTTGGATGGGTTGACGTTCTGCACGTAGAAGCAAAAGGC", "note": "[A36T A57C]", "fraction ligated": 0.823},
      {"variant": "GAGACCGCAACTGAAAAGTTGTTATCACTTGTCGTTACACACTTTGGATGGGTTGAAGTTCTGCACGTAGAAGCAAAAGGC", "note": "[A36T G38C]", "fraction ligated": 0.833},
      {"variant": "GAGACCGCAACTGAAAAGTTGTTATCACTTGTCGTTAAACACTTTGGATGGGTTGAAGTTCTGCACGTAGAAGCAAAAGGC", "note": "[A36T G38A]", "fraction ligated": 0.849},
      {"variant": "GAGACCGCAACTGAAAAGTTGTTATCACTTGTCGTTATACACTTTGGATGGGTTGAAGTTCTGCACGTAGAAGCAAAAGGC", "note": "[A36T G38T]", "fraction ligated": 0.834},
      {"variant": "GAGACCGCAACTGAAAAGTTGTTATCACTTGTCGTTAGACACATTGGATGGGTTGAAGTTCTGCACGTAGAAGCAAAAGGC", "note": "[A36T T43A]", "fraction ligated": 0.841},
      {"variant": "GAGACCGCAACTGAAAAGTTGTTATCACTTGTCGTTAGACACGTTGGATGGGTTGAAGTTCTGCACGTAGAAGCAAAAGGC", "note": "[A36T T43G]", "fraction ligated": 0.812},
      {"variant": "GAGACCGCAACTGAAAAGTTGTTATCACTTGTCGTTAGACACCTTGGATGGGTTGAAGTTCTGCACGTAGAAGCAAAAGGC", "note": "[A36T T43C]", "fraction ligated": 0.814},
      {"variant": "GAGACCGCAACTGAAAAGTTGTTATCACTTGTCGTTAGACACTTTGAATGGGTTGAAGTTCTGCACGTAGAAGCAAAAGGC", "note": "[A36T G47A]", "fraction ligated": 0.8},
      {"variant": "GAGACCGCAACTGAAAAGTTGTTATCACTTGTCGTTAGACACTTTGCATGGGTTGAAGTTCTGCACGTAGAAGCAAAAGGC", "note": "[A36T G47C]", "fraction ligated": 0.233},
      {"variant": "GAGACCGCAACTGAAAAGTTGTTATCACTTGTCGTTAGACACTTTGTATGGGTTGAAGTTCTGCACGTAGAAGCAAAAGGC", "note": "[A36T G47T]", "fraction ligated": 0.383},
      {"variant": "GAGACCGCAACTGAAAAGTTGTTATCACTTGTCGTACGACGCTTTGGATGGGTTGAAGTTCTGCACGTAGAAGCAAAAGGC", "note": "[A37C A41G]", "fraction ligated": 0.79},
      {"variant": "GAGACCGCAACTGAAAAGTTGTTATCACTTGTCGTACGACCCTTTGGATGGGTTGAAGTTCTGCACGTAGAAGCAAAAGGC", "note": "[A37C A41C]", "fraction ligated": 0.759},
      {"variant": "GAGACCGCAACTGAAAAGTTGTTATCACTTGTCGTACGACTCTTTGGATGGGTTGAAGTTCTGCACGTAGAAGCAAAAGGC", "note": "[A37C A41T]", "fraction ligated": 0.816},
      {"variant": "GAGACCGCAACTGAAAAGTTGTTATCACTTGTCGTTAGACACTTTGGATTGGTTGAAGTTCTGCACGTAGAAGCAAAAGGC", "note": "[A36T G50T]", "fraction ligated": 0.775},
      {"variant": "GAGACCGCAACTGAAAAGTTGTTATCACTTGTCGTTAGACACTTTGGATAGGTTGAAGTTCTGCACGTAGAAGCAAAAGGC", "note": "[A36T G50A]", "fraction ligated": 0.642},
      {"variant": "GAGACCGCAACTGAAAAGTTGTTATCACTTGTCGTTAGACACTTTGGATCGGTTGAAGTTCTGCACGTAGAAGCAAAAGGC", "note": "[A36T G50C]", "fraction ligated": 0.467},
      {"variant": "GAGACCGCAACTGAAAAGTTGTTATCACTTGTCGTTAGACACTTTAGATGGGTTGAAGTTCTGCACGTAGAAGCAAAAGGC", "note": "[A36T G46A]", "fraction ligated": 0.818},
      {"variant": "GAGACCGCAACTGAAAAGTTGTTATCACTTGTCGTTAGACACTTTCGATGGGTTGAAGTTCTGCACGTAGAAGCAAAAGGC", "note": "[A36T G46C]", "fraction ligated": 0.787},
      {"variant": "GAGACCGCAACTGAAAAGTTGTTATCACTTGTCGTTAGACACTTTTGATGGGTTGAAGTTCTGCACGTAGAAGCAAAAGGC", "note": "[A36T G46T]", "fraction ligated": 0.791},
      {"variant": "GAGACCGCAACTGAAAAGTTGTTATCACTTGTCGTTAGACACTTTGGATGGGTTGCAGTTCTGCACGTAGAAGCAAAAGGC", "note": "[A36T A56C]", "fraction ligated": 0.797},
      {"variant": "GAGACCGCAACTGAAAAGTTGTTATCACTTGTCGTTAGACACTTTGGATGGGTTGGAGTTCTGCACGTAGAAGCAAAAGGC", "note": "[A36T A56G]", "fraction ligated": 0.795},
      {"variant": "GAGACCGCAACTGAAAAGTTGTTATCACTTGTCGTTAGACACTTTGGATGGGTTGTAGTTCTGCACGTAGAAGCAAAAGGC", "note": "[A36T A56T]", "fraction ligated": 0.823},
      {"variant": "GAGACCGCAACTGAAAAGTTGTTATCACTTGTCGTACGGCACTTTGGATGGGTTGAAGTTCTGCACGTAGAAGCAAAAGGC", "note": "[A37C A39G]", "fraction ligated": 0.833},
      {"variant": "GAGACCGCAACTGAAAAGTTGTTATCACTTGTCGTACGCCACTTTGGATGGGTTGAAGTTCTGCACGTAGAAGCAAAAGGC", "note": "[A37C A39C]", "fraction ligated": 0.782},
      {"variant": "GAGACCGCAACTGAAAAGTTGTTATCACTTGTCGTACGTCACTTTGGATGGGTTGAAGTTCTGCACGTAGAAGCAAAAGGC", "note": "[A37C A39T]", "fraction ligated": 0.807},
      {"variant": "GAGACCGCAACTGAAAAGTTGTTATCACTTGTCGTTAGACATTTTGGATGGGTTGAAGTTCTGCACGTAGAAGCAAAAGGC", "note": "[A36T C42T]", "fraction ligated": 0.856},
      {"variant": "GAGACCGCAACTGAAAAGTTGTTATCACTTGTCGTTAGACAGTTTGGATGGGTTGAAGTTCTGCACGTAGAAGCAAAAGGC", "note": "[A36T C42G]", "fraction ligated": 0.835},
      {"variant": "GAGACCGCAACTGAAAAGTTGTTATCACTTGTCGTTAGACAATTTGGATGGGTTGAAGTTCTGCACGTAGAAGCAAAAGGC", "note": "[A36T C42A]", "fraction ligated": 0.834},
      {"variant": "GAGACCGCAACTGAAAAGTTGTTATCACTTGTCGTTAGACACTTTGGAGGGGTTGAAGTTCTGCACGTAGAAGCAAAAGGC", "note": "[A36T T49G]", "fraction ligated": 0.797},
      {"variant": "GAGACCGCAACTGAAAAGTTGTTATCACTTGTCGTTAGACACTTTGGACGGGTTGAAGTTCTGCACGTAGAAGCAAAAGGC", "note": "[A36T T49C]", "fraction ligated": 0.742},
      {"variant": "GAGACCGCAACTGAAAAGTTGTTATCACTTGTCGTTAGACACTTTGGAAGGGTTGAAGTTCTGCACGTAGAAGCAAAAGGC", "note": "[A36T T49A]", "fraction ligated": 0.797}
    ]}
  ]
}
